{"source": "paper PMC4159047", "about": "(Science signaling, 2014)", "key": {"type IV collagen [1]": {"biological_target": "type IV collagen", "experiment": "SPR"}, "type IV collagen [2]": {"biological_target": "type IV collagen (biotin (Pierce EZ-link biotinylation kit) in the pull-downs)", "experiment": "SPR"}}, "data": [{"molecule": "Gpr126-NT-Fc (secreted, Fc-tagged protein containing the N-terminal fragment of zebrafish Gpr126) (Fc fusion)", "values": [{"measurement": "Kd", "setting": "type IV collagen [1]", "result": 1.3, "unit": "nM"}, {"measurement": "koff", "setting": "type IV collagen [1]", "result": 0.000404, "unit": "s⁻¹"}, {"measurement": "kon", "setting": "type IV collagen [1]", "result": 306000, "unit": "M⁻¹ s⁻¹"}]}, {"molecule": "CUBPTX-Fc (signal peptide, CUB domain and PTX domain of Gpr126 followed by an Fc tag) (Fc fusion, zebrafish, UniProt C6KFA3 41-336, looked up) CNVVLTDSQGSFTSPCYPNDYPPSQSCNWTIQAPAGFIVQITFLDFELEEAQGCIYDRVVVKTGTSDAKFCGLTANGLTLNSTGNVMEVFFNSDFSVQKKGFHISYKQVAVTLRNQKVTMPKSSKTILRVSNSISIPVLTAFTVCFEIARTAQKATETIFTLSDAAGTSILAFEKTSNGMELFIGASYCSVDNLLTSSDITATMKPLCLTWTKSSGLIGVYFGGHYFSSICSASQIYTLQSGGLLQIAGKGSSSVSVDDQNLDGFIYNFRLWDHAMLSSELSALTCDTVGNVVDWD", "values": [{"measurement": "Kd", "setting": "type IV collagen [2]", "result": 1.2, "unit": "nM"}, {"measurement": "koff", "setting": "type IV collagen [2]", "result": 0.00333, "unit": "s⁻¹"}, {"measurement": "kon", "setting": "type IV collagen [2]", "result": "2.78e+06", "unit": "M⁻¹ s⁻¹"}]}]}
